# The supplement of paper PMC10567573
# ± gives the standard deviation.
# Assay: protein stability index of a GFP-peptide fusion (GPS, HEK-293T) (PSI 1-6); higher = more stable
# [1] = treatment: DMSO, c terminus: native
# [2] = treatment: MLN4924 1 uM, 8 h, c terminus: native
# [3] = treatment: DMSO, c terminus: a fixed tail appended
# [4] = treatment: MLN4924 1 uM, 8 h, c terminus: a fixed tail appended
# 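Also: 24-mer peptide tiles fused after GFP, lentivirally expressed, FACS-sorted into six equal bins by GFP/DsRed ratio, decoded by Illumina sequencing, PSI is the read-weighted mean bin number.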
Sequence,protein stability index [1],protein stability index [2],protein stability index [3],protein stability index [4]
SQKYKEGKYIIELNHMIKDNGWD [YPEL3],2.94 ± 0.28,2.97 ± 0.15,–,–
SQLSMKASLENSLEETKGRYCMQL [KRT16],–,–,3.44 ± 0.18,3.61 ± 0.31
SRDEAALPELLLGALPVGSNLTSN [RETREG3],–,–,4.19 ± 0.23,4.43 ± 0.28
SRILKKTVYNEMDKNRCELLSFLL [EDNRA],–,–,2.14 ± 0.67,1.96 ± 0.36
SRNAADKERAAGGGAGSSEDDAQS [GOLPH3],–,–,5.63 ± 0.24,5.6 ± 0.15
SSAVYFAEADEPTTHFQSIPDAFW [KCNA4],–,–,2.54 ± 0.16,2.67 ± 0.33
SSDKVRGIETLESVPIIGGFWETI [PHTF1],–,–,2.56 ± 0.32,2.65 ± 0.31
SSDVSTAGTGASRSSHSSDSGGSD [ELF3],–,–,5.44 ± 0.32,5.565 ± 0.049
SSELTDSLRTLKPEGNILRDRFKS [NOP53],–,–,4.42 ± 0.22,4.49 ± 0.14
SSHFLEQTLDKKLMSDLRRKRTAH [INTS4],–,–,4.06 ± 0.23,4.14 ± 0.17
SSTSPLMEGTPTIKSKKKLLQIID [VPS39],–,–,3.76 ± 0.23,3.79 ± 0.23
STKGSRSNLSTRDASILTEMPTQP [NETO1],–,–,4.52 ± 0.27,4.71 ± 0.24
STPLTATPGGRGDMKYGIYAVENE [VTI1B],–,–,4.53 ± 0.19,4.42 ± 0.22
STSEDSLVKQECIKEVVEKREACH [FAN1],–,–,5.52 ± 0.22,5.23 ± 0.092
STSEESWTDSEVDSSCSGQPIHLW [SPDEF],–,–,4.21 ± 0.32,4.37 ± 0.25
SVLDDLLYAVGGHDGSSYLNSVER [KLHL20],–,–,2.71 ± 0.46,3.03 ± 0.56
SVLKLHHSLQQSEPDLRHLVLVVN [SERTAD1],–,–,2.46 ± 0.24,2.04 ± 0.25
SVLSACDNLSDLVMVRWNKSLEWS [IQUB],–,–,2.04 ± 0.24,2.33 ± 0.12
SVMFRKWRDSKGKDKEYAEIIRKQ [UBE2R2],–,–,2.98 ± 0.28,2.99 ± 0.18
SWEEGMKVFEELLLDADWSINAGS [CRY1],–,–,2.84 ± 0.22,2.89 ± 0.33
SWRTLAILVNLQGTVVFLLSLFIP [SLC22A15],–,–,3.4 ± 0.53,2.89 ± 0.11
SWTAVTPQQTWASPAEVVDLTLDE [C18orf25],–,–,4.74 ± 0.21,4.73 ± 0.2

Sequence,protein stability index [1],protein stability index [2],protein stability index [3],protein stability index [4]
SYIGLPYADHNYGARPPPTPPASP [KMT2E],–,–,4.66 ± 0.32,4.73 ± 0.24
TAAVLGLICEGLYPASIVDEPTFK [ZBED1],–,–,2.17 ± 0.26,2.19 ± 0.6
TAELVVIEDAAEPKEPAPPNGSAA [PALM],–,–,5.39 ± 0.14,5.47 ± 0.16
TAHASAQSLAGGSRRTKEEELQC [TPD52L1],4.99 ± 0.1,4.88 ± 0.17,–,–
TATEELEKTQDDLMKHQTNISELK [EPB41L3],–,–,5.69 ± 0.23,5.47 ± 0.39
TCGGGVQFSSRDCTRPVPRNGGKY [ADAMTS4],–,–,4.19 ± 0.33,3.94 ± 0.65
TESEARYSSQLSQVQSLITNVESQ [KRT33B],–,–,4.66 ± 0.31,4.75 ± 0.071
TEVPFSITTDNLQCRERREHPNLV [TEKT4],–,–,4.17 ± 0.15,4.1 ± 0.15
TGDGWEFKLADPDEVARRWGKRKN [ETS2],–,–,4.34 ± 0.33,4.34 ± 0.26
TGEHREFKLDKKYQRPQDSEDMWG [FBF1],–,–,4.56 ± 0.23,4.55 ± 0.35
TGFGQGQGYTINVPWNQVGMRDAD [HDAC6],–,–,2.89 ± 0.34,2.71 ± 0.28
TGHGVSRGPSPVVLGSQDALPIAT [FCHO1],–,–,4.17 ± 0.14,4.14 ± 0.045
TGPLQPQPKKPEDEPQETAYRTQV [PKD2L1],–,–,5.11 ± 0.45,5.3 ± 0.2
TGYLSSMVGLILGPFGVNHGVELH [PCMTD2],–,–,3.17 ± 0.31,2.78 ± 0.4
THALAEWASRREAFAQRPSSAPDL [CDC25B],–,–,3.91 ± 0.26,4.01 ± 0.082
TIDAVPNAIPGRTDIELEIYGMEG [ZNF207],–,–,3.86 ± 0.27,4 ± 0.093
TIEYLKRHNALLSKRLLALTSSDL [TMEM192],–,–,2.38 ± 0.42,2.17 ± 0.21
TKLRLERVKFRRQEANARERNRMH [NEUROD6],–,–,3.67 ± 0.14,3.92 ± 0.4
TLALEYTYGRRAKGHNTPKDIAHF [DYNC2LI1],–,–,2.74 ± 0.071,2.83 ± 0.22
TLALILQIPTQNTQARQVMEREFN [PPFIA4],–,–,2.32 ± 0.34,2.39 ± 0.26
TLEQEQEALVNRLWKRMDKLEAEK [CCDC6],–,–,4.42 ± 0.22,4.52 ± 0.17
TLLLRLNATDPDEGTNGQLDYSFG [PCDHGC5],–,–,2.88 ± 0.36,3.11 ± 0.28
